According to the RNAGym collection of RNA variant scans (doi:10.7554/elife.80360):

B1: HDV Ribozyme (parent)
chain: GGCCGGCAUGGUCCCAGCCUCCUCGCUGGCGCCGGCUGGGCAACAUUCCGAGGGGACCGUCCCCUCGGUAAUGGCGAAUGGGACCCA

Variants of: B1
Assay: self-cleavage, relative activity (ratio to wild type); higher = more cleavage; co-transcriptional

Variant	self-cleavage
A51U U79C	0.49
G5C C26G	0.138
U9A U47A	1.09
C49G C57U	0.945
G35C C86G	0.0489
A8C G82U	0.116
C26U G31A	0.819
U12C A71U	0.453
U47C C48U	0.597
C32G G35U	0.0583
G34U C66A	0.0712
U12C G54A	0.862
G29C G80A	0.0692
U12C A43C	0.0831
A56G U60G	0.831
G52U G80A	0.528
G40C C75U	0.0652
C3U C85A	0.646
A8G C21A	0.0415
G17C U23A	0.344
G2A C58A	0.234
U27G U72A	0.361
G54A G68C	0.173
C49U C84A	0.786

Variant	self-cleavage
C3A G40C	0.0923
C13G A45C	0.0639
A45G G53A	0.991
G11U G50A	0.415
G17U U20A	0.0378
A45G C85U	1.06
G1A C24G	0.0702
G55A C57U	0.925
G5C G80U	0.124
G59A G73U	0.267
A43G C75G	0.161
C24U U72A	0.404
C66G G82U	0.485
A56C A77G	1.02
G35C C41A	0.237
G10A G17A	0.724
C4U C14G	0.369
C15G A43U	0.123
C32A A71C	0
C7G A83U	0
G2U C44U	0
C48U C63G	0.542
C66A G68U	0.616
G10U C36A	0.067

Variant	self-cleavage
G53U C75A	0.117
C7U C36U	0.399
G2C A16C	0.0361
C61U A83U	0.456
C4U U79G	0.185
U12G C75G	0
U65G G68C	0.673
C57G C62A	0.957
C44U U69C	0.814
A42G G73C	0
U69A U79A	0.665
A8U A43C	0.453
G38U A71U	0.222
C75U C85U	0.138
A16G C64A	0.782
C22U G38U	0.149
U20A G35C	0.122
A51U U60A	1.14
C18U A70C	0.514
C33A G68U	0.102
A78C G81C	0.0665
A70G C75U	0.136
U23C C44G	0.185
C14A C24A	0.383

Variant	self-cleavage
C49A U69C	1.13
A16G U69C	1.15
G39C U65G	0.262
G2A G38U	0.0373
C64A G67U	0.425
G2U C24A	0.0554
C63A G68C	0.495
G68C U72G	0.356
G54U G80U	0.203
C13G C30A	0.0978
U37G U72C	0.119
C26G C41U	0.76
G11C G59A	0.434
G29U C30A	0.155
G39A U46C	0.181
C4A U69C	0.277
G50C G55A	0.959
G34A G59A	0.214
G5U U69G	0.485
A56G U72A	0.643
G1A G73A	0.128
G31A A42G	0.116
A16G U46C	0.293
G25U A87U	0.109

Variant	self-cleavage
C7U G82C	0.227
C3G C61U	0.729
G5C A56G	0.237
G6A C21A	0.0707
G28U G52U	0.211
G67U A78G	0.791
A78U G80A	0.111
G1U G73A	0.237
A43G U46C	0.443
C4U C66A	0.755
G39U C44G	0.113
G40A U72A	0.446
C4G U69C	0.308
U37A A42C	0.246
C63A A70C	0.883
G11A A45U	0.222
G28C A56C	0
U65G A78U	0.569
A51G A87G	1
G10A C64G	0.749
G40C A87G	0.215
C30G C32G	0.0627
C64G U79A	0.692
A16G C21G	0.0875

Variant	self-cleavage
C13U C33A	0.0923
G53C A56C	1.14
C30U G80U	0.116
G74A C75U	0.141
U47G C49U	1.32
C4G A16C	0.0755
G6A G35C	0.119
G34U U37C	0.148
G38A G82C	0.262
G52A U60A	0.975
G34A C49G	0.155
G17A A70G	0.554
U20A U27C	0
C14A A16U	0.923
G68U C84A	0.816
G54C A83U	0.631
G31C A78C	0.0997
G52U U69C	0.831
C3U G28C	0.0449
G11U G38C	0
G76C G82C	0.225
U12G C41G	0.554
C7U C57G	1.2
A70C A77U	0.237

Variant	self-cleavage
U27C U72A	0.396
C36G G39C	0.232
C41G A42G	0.332
C62G U69A	1.04
C62G C64A	0.608
A42G G55A	0.485
C7G G10C	0.222
G6C G29U	0.111
G50C A87U	1.15
G6A A87G	0.654
G2A G10A	0.0256
C19U A51U	0.0923
A45C U79G	0.293
G1U C22U	0.356
C22G C84U	0.0563
C63G A71C	0.782
G29C G59U	0.163
U9A U65C	1.07
A70C A71C	0.762
C7G G17C	0
G54U A56U	0.953
U69G A70U	0.95
C36U A56G	0.628
G6C G53C	0.32

Variant	self-cleavage
C66U A71U	0.936
C32A C86G	0.243
C4G U47G	0.175
C18G G55C	0.185
U27G G34A	0.415
G11C U72C	0.119
C64G C84U	0.831
C3A A8C	0.299
C62U G76C	0.941
U12C U79G	0.0791
C15A A78C	0.0652
U9C C15G	0.104
C32U C62G	0.727
G6U C30U	0.131
C57U U65G	0.919
C48U C85A	1.03
C22G G59A	0.124
A16C C30A	0.208
C18G U69G	0.128
C18G U69A	0.0489
G25U C48U	0.102
C26G A77C	0.383
G31A U72A	0.0292
C22U G80U	0.11

Variant	self-cleavage
C33A U60G	0.116
C22U G40A	0.643
C22U G40U	0.394
C3G G68U	0.383
G5A C22G	0.0554
C32G C64G	0.0405
C57U U79C	0.237
G54U C84U	0.808
G31U C66G	0.266
U46C G52A	1.03
G76C A77U	0.399
C26A C48G	1.07
G6U U60C	0.525
C18G C30U	0.0386
U9C C84G	0.489
A42G U46C	0.369
C30A C61U	0.601
G6C C57U	0.269
G82C A83G	0.233
C19U U20C	0.145
G53U A78U	0.251
G2C U9G	0.0723
A71C A77G	0.569
C66U C85G	0.923

Variant	self-cleavage
A16C G40C	0.201
U37C A56C	1.11
A51C A87C	0.937
U69A	0.977
G2A A78G	0.0504
G2A A78C	0.0432
G11A C44A	0.187
C18A C62U	0.264
C3G G40U	0.442
A45U C58A	0.539
U23C G52C	1.01
U47A U79C	0.312
G34C C84U	0.217
G17C G40C	0
C32U A71U	0.565
C22G U79A	0.0615
C7G C21U	0.0594
C48U C57A	0.972
G38C C66G	0.203
C36G G38U	0.199
U23G U65G	0.674
A77G A87C	0.735
G40A A87C	0.981
A8U U23A	0.804

Variant	self-cleavage
G25A A77G	0
G1A C49A	0.0923
C32U G52A	0.805
G6C A45C	0.185
U46C C49A	0.54
G52C A70G	0.702
C57A C62A	0.997
A16C U72C	0.227
A8U C85U	1.09
G17C G76U	0.773
A51U A71G	0.91
U47C G80U	0.29
G59U C63G	0.767
C49A G50C	1.15
A16C U20G	0
A78U U79G	0.138
G17U C58G	0.277
C26A C75G	0
G31U A42U	0.104
C44G U46A	0.9
G11C A78G	0.229
G38A G52C	0.0692
G17C G59A	0.231
C32U C64G	0.875

Variant	self-cleavage
C13A C32U	0.375
C63G G76U	0.978
G39A G40U	0.57
C15U G39U	0.322
C24G C57U	0.14
U60C U79A	1.23
A42C U65A	0.155
G34A G82A	0.0671
C26A C44G	0.712
A45G G50A	0.707
U37C G50A	1.01
U47A C85G	0.665
G28C G81A	0.104
C13G G52U	0
U12A G50A	0.229
C58U U65A	1.17
C3U G39C	0.0804
G50C A78G	0.584
A16G C41A	0.798
G6A C26A	0.888
G55U A78C	0.18
G5A G34C	0.101
G59C U65A	1.17
C33A U79G	0.214

Variant	self-cleavage
C3A A87U	0.632
U37C G53C	1.2
C58U G80C	0.203
U27A A83G	0.723
U20C C22A	0.119
G2U G50C	0.0179
A43U U72C	0.155
C44A U69C	0.677
C63G C75U	0.154
A43G A78G	0.119
C57G C64A	1.04
G29A C62U	0.159
G39U A51U	0.611
G40U A42G	0.306
G39C G73C	0.151
U46A C63A	0.499
G35C A51C	0.297
G25C C57A	0.166
C26A G35C	0.429
A16C U23G	0.688
G6U A45U	0.475
G29U C63U	0
C32U C57A	0.817
G17U G53A	0.641

Variant	self-cleavage
G17C G38A	0.0396
U46G C75G	0.0639
G2U G10C	0.0621
C57A U69C	0.892
A8G G80A	0.148
C22A C75A	0.0308
A51U C63U	0.88
C22G C63A	0.166
A51U C62A	0.759
U9A G53C	0.974
C14A C66U	1.03
G5U A43U	0.0978
C22A A87C	0.491
C3A C75A	0.0784
G11U C26G	0.527
U9A A51C	0.923
C24A G54A	0.774
C15U U47C	0.779
A77U U79G	0.161
U23G G74U	0.0863
U27C A51U	0.804
G35U U72C	0.0811
